Experimental data: article PMC4459817, “Vasculotide reduces endothelial permeability and tumor cell extravasation in the absence of binding to or agonistic activation of Tie2” (EMBO Molecular Medicine, 2015)

T1: mouse Tie2-Fc (Fc-conjugated extracellular domain of Tie2) (mouse, UniProt Q02858 23-746)
T1 chain: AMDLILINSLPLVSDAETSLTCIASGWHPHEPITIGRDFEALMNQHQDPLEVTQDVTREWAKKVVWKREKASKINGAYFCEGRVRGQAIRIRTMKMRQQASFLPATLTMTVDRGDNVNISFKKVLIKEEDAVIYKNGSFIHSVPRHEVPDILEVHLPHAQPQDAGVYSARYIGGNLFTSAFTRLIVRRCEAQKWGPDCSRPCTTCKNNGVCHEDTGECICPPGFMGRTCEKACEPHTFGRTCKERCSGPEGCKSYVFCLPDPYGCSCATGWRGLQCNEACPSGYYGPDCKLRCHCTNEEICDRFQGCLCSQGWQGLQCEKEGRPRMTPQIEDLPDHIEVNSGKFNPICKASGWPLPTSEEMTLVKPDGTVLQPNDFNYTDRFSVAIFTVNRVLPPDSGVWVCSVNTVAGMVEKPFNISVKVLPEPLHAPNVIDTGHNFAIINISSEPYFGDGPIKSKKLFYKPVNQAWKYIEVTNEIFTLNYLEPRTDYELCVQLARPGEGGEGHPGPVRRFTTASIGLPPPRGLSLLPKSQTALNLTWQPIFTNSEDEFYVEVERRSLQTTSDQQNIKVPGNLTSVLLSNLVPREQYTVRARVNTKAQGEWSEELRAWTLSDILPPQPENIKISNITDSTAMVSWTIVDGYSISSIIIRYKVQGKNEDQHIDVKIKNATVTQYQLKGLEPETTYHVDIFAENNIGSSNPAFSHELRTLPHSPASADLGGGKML

T2: human Tie2-Fc (Fc-conjugated extracellular domain of Tie2) (human, UniProt Q02763 23-748)
T2 chain: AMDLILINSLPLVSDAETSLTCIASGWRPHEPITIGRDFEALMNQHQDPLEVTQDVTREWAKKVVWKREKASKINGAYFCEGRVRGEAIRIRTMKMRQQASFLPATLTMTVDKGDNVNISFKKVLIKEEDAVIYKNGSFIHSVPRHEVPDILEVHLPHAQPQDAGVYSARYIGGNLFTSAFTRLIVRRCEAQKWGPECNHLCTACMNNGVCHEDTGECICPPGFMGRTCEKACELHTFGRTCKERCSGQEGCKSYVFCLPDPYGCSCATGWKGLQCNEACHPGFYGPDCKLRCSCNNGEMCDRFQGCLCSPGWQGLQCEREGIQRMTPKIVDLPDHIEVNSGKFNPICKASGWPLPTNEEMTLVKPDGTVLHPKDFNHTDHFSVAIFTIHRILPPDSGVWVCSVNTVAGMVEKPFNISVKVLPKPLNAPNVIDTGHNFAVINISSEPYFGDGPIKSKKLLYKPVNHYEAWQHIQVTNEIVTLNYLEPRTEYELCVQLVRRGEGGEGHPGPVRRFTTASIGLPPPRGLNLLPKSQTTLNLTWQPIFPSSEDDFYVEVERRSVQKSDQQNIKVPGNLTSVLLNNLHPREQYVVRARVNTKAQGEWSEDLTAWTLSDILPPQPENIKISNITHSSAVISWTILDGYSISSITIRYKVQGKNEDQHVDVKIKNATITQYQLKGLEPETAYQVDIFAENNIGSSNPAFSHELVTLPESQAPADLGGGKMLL

B1: COMP-Ang1 (ligand)
chain: DLAPQMLRELQETNAALQDVRELLRHRVKEITFLKNTVMECDACGDTVHNLVNLCTKEGVLLKGGKREEEKPFRDCADVYQAGFNKSGIYTIYINNMPEPKKVFCNMDVNGGGWTVIQHREDGSLDFQRGWKEYKMGFGNPSGEYWLGNEFIFAITSQRQYMLRIELMDWEGNRAYSQYDRFHIGNEKQNYRLYLKGHTGTAGKQSSLILHGADFSTKDADNDNCMCKCALMLTGGWWFDACGPSNLNGMFYTAGQNHGKLNGIKWHYFKGPSYSLRSTTMMIRPLDF
B2: BowAng1 (Ang-F1-Fc-F1) (ligand)
chain: RDCADVYQAGFNKSGIYTIYINNMPEPKKVFCNMDVNGGGWTVIQHREDGSLDFQRGWKEYKMGFGNPSGEYWLGNEFIFAITSQRQYMLRIELMDWEGNRAYSQYDRFHIGNEKQNYRLYLKGHTGTAGKQSSLILHGADFSTKDADNDNCMCKCALMLTGGWWFDACGPSNLNGMFYTAGQNHGKLNGIKWHYFKGPSYSLRSTTMMIRPLDFRDCADVYQAGFNKSGIYTIYINNMPEPKKVFCNMDVNGGGWTVIQHREDGSLDFQRGWKEYKMGFGNPSGEYWLGNEFIFAITSQRQYMLRIELMDWEGNRAYSQYDRFHIGNEKQNYRLYLKGHTGTAGKQSSLILHGADFSTKDADNDNCMCKCALMLTGGWWFDACGPSNLNGMFYTAGQNHGKLNGIKWHYFKGPSYSLRSTTMMIRPLDF

Tests used:
[1] = test system: Tie2 (Ang1 or Ang2 binding); conditions: synthetic free form, ref Tournaire et al, 2004, cited from earlier work; for inhibition of Ang1 or Ang2 binding to Tie2: competition assays, tested up to 1 mM
Text: For therapeutic use, recombinant variants or mimetics of multimeric Ang1 have been engineered, including Ang1* and Ang-F1-Fc-F1/Bow-Ang1 (Davis et al, [2003]; Daly et al, [2013]), MAT-Ang1 and COMP-Ang1 (Cho et al, [2004]; Koh, [2013]). […] The main focus of the original paper that discovered T7 (Tournaire et al, [2004]) was actually on a different peptide called ‘T4’ (NLLMAAS) and its potential use as a Tie2 inhibitor/antagonist.

[2] = biological target: T3, human Tie2-Fc (hTie2-Fc) (Homo sapiens, UniProt Q02763); assay: SPR binding to human Tie2-Fc; conditions: human Tie2-Fc, 0.625–10 nM, 37°C, pH 7.4, Fig9C
T3 construct: Purified human or mouse Tie2-Fc (i.e., Fc-conjugated extracellular domains of Tie2); purchased R&D Systems 313-TI-100
Text: (§1) To better understand the difficulties we had in observing Tie2 activation by VT, we sought to characterize the binding affinity and kinetics of VT to Tie2. Purified human or mouse Tie2-Fc (i.e., Fc-conjugated extracellular domains of Tie2) were first coupled to protein A sepharose beads for pull-down experiments (Fig9A and B) or immobilized on a Biacore CM5 sensor chip for surface plasmon resonance (SPR) experiments (Fig9C and Supplementary Fig S3).
Figure 9 Binding of Vasculotide vs. Ang1 variants to the extracellular domain of Tie2 • A–B Pull-down assay. Input ligands—rhAng1 (A) and VT (B)—were incubated with either protein A sepharose beads only, bead-conjugated mouse Tie2-Fc (mTie2), or bead-conjugated human Tie2-Fc (hTie2). […] The ‘unbound’ fraction is 7% of residual/free ligands remaining in the supernatant. • C Quantitative kinetics analysis by SPR. All analytes were run at increasing concentrations of 0.625, 1.25, 2.5, 5, and 10 nM, at 37°C and pH 7.4. […] Source data are available online for this figure. […]
(§2) 9. Tie2 Receptor-Binding Assays
(§3) Vasculotide (VT) was manufactured by Bachem UK Ltd. T7c (CHHHRHSF) was synthesized by Genscript (Piscataway, NJ, USA). PEG-Cys consists of a single cysteine reacted to each of the 4 arms of PEG-maleimide (Sunbright PTE-100MA, NOF Corporation, Tokyo, Japan). BowAng1 (Ang1-Fd-Fc-Fd) was made and provided by Regeneron Pharmaceuticals, Inc. (Tarrytown, NY, USA). COMP-Ang1 was purified in the Kerbel lab from serum-free culture media conditioned by an engineered CHO cell line provided by Dr. Gou Young Koh (KAIST), according to published protocols (Hwang et al, 2008).
(§4) Recombinant human Angiopoietin-1 (rhAng1) and Vascular Endothelial Growth Factor ( rhVEGF) were […]
(§5) purchased from R&D Systems. […]
(structural/molecular weight control for VT), and 40 μL of supernatant (7% of residual/unbound ligand) – were similarly boiled in SDS sample buffer. Ang1 samples and controls were resolved by 7.5% polyacrylamide gel electrophoresis (PAGE), electroblotted onto PVDF membranes, and probed with an anti-Ang1 antibody (R&D Sytems, AF923; diluted 1:2,000 in TBS supplemented with 7% BSA and 0.1% Tween-20) at 75kDa (reduced monomers). VT samples and controls were resolved by 17% PAGE, blotted onto PVDF membranes, and probed with an anti-PEG antibody (Silver Lake Research, CH2074; diluted 1:4,000 in TBS supplemented with 7% BSA and 0.05% CHAPS*) at higher “apparent” molecular weights than the expected 14 and 10kDa due to their polymeric nature and large hydrodynamic radii (Zheng et al, 2007). *Note: non-ionic, PEO-based, polymer detergents were avoided at these steps as they cross-react with the anti-PEG antibody used for detecting VT.
Surface Plasmon Resonance (SPR) Experiments: The binding of analytes – VT, T7c peptide, PEG-Cys, rhAng1, COMP-Ang1, BowAng1, and rhVEGF – to the extracellular domain of Tie2 were […]
investigated by SPR using a Biacore T200 Instrument (GE Healthcare). For qualitative binding analysis, mTie2-Fc was dissolved in 10mM acetate buffer (pH 4.5) and immobilized at high density onto a CM5 sensor chip using amine coupling chemistry as described by the manufacturer to a response of 11,500RU.
Binding analysis were performed by exposure of immobilized mTie2-Fc to the analytes diluted in HBS-EP (0.01M HEPES pH 7.4, 0.15M NaCl, 3mM EDTA, 0.005% v/v Tween-20), which was supplemented with 1mg/mL carboxymethyl dextran (NSB reducer, GE Healthcare) to reduce non-specific binding to the sensor chip. Analytes were injected at 30μL/min (association time 120s, dissociation time 120s) at 37 °C, and the chip surface was regenerated each cycle by a 60s pulse of 4M MgCl2. To quantitatively determine the kinetic properties of the interaction (KD, kd, ka) and avoid mass transport limitations, mTie2-Fc and hTie2-Fc were immobilized at low density (1,000-1,200RU) onto separate flow cells of the CM5 chip using amine coupling chemistry. Kinetic analyses were performed using a single-cycle kinetic […]

[3] = biological target: T4, mouse Tie2-Fc (mTie2-Fc) (Mus musculus, UniProt Q02858); assay: SPR binding to mouse Tie2-Fc; conditions: mouse Tie2-Fc (low- and high-density), 37°C, pH 7.4, Supplementary Fig S3
T4 construct: Purified human or mouse Tie2-Fc (i.e., Fc-conjugated extracellular domains of Tie2); purchased R&D Systems 762-T2-100
Text: as §1, with “S3). […]” for “S3).”
as §2, §3, §4, §5
(structural/molecular weight control for VT), and 40 μL of supernatant (7% of residual/unbound ligand) – were similarly boiled in SDS sample buffer. […]
Binding analysis were performed by exposure of immobilized mTie2-Fc to the analytes diluted in HBS-EP (0.01M HEPES pH 7.4, 0.15M NaCl, 3mM EDTA, 0.005% v/v Tween-20), which was supplemented with 1mg/mL carboxymethyl dextran (NSB reducer, GE Healthcare) to reduce non-specific binding to the sensor chip. […] To quantitatively determine the kinetic properties of the interaction (KD, kd, ka) and avoid mass transport limitations, mTie2-Fc and hTie2-Fc were immobilized at low density (1,000-1,200RU) onto separate flow cells of the CM5 chip using amine coupling chemistry. […] All data were analysed using BIA Evaluation Software 2.0 (GE Healthcare) to calculate kd, ka and KD using the 1:1 ligand binding model. […]

[4] = biological target: T1, mouse Tie2-Fc (Fc-conjugated …); assay: SPR
[5] = biological target: T2, human Tie2-Fc (Fc-conjugated …); assay: SPR
[6] = biological target: T2, human Tie2-Fc (Fc-conjugated …); assay: SPR
[7] = biological target: T1, mouse Tie2-Fc (Fc-conjugated …); assay: SPR

| Molecule | inhibition of Ang1 or Ang2 binding to Tie2 [1] | koff [4] [s⁻¹] | koff [5] [s⁻¹] | Kd [6] [nM] | Kd [7] [nM] | other results |
| --- | --- | --- | --- | --- | --- | --- |
| HHHRHSF [T7, HHHRHSF, heptapeptide identified by phage display, synthetic free form] | did not inhibit Ang1 or Ang2 binding to Tie2 |  |  |  |  |  |
| NLLMAAS [T4] | able to competitively inhibit Ang1 or Ang2 binding to Tie2 |  |  |  |  | Ki ([1]; ELISA and SPR, read-out: Ki, competitive inhibition of Ang1 or Ang2 binding to Tie2): ~300000 nM |
| VEGF |  |  |  |  |  | binding to Tie2-Fc [2]: no binding to Tie2-Fc was detectable; binding to Tie2-Fc ([2]; listed as rhVEGF): no detectable binding; binding to Tie2-Fc [3]: no binding to Tie2-Fc was detectable |
| B1 |  | 0.00208 | 0.00361 | 1.36 | 1.32 |  |
| B2 |  | 0.00231 | 0.00232 | 0.611 | 0.465 |  |
